# Data: patent publication US20240116985A1 (published 2024)
# Starred links: 1 amine or outer side, 2 acyl side, 3 side chain; linkers in the order of their positions; H or OH if unused. Positions of bridges follow the written chain, without caps; N, C: chain ends. Non-standard residues stand in square brackets, D forms with d. Primed or numbered codes have the meaning given here. *: point of attachment. PyrS2(3) = (S)-3-amino-1-((pent-4-en-1-yloxy)carbonyl)pyrrolidine-3-carboxylic acid, stapling residue, C=CCCCOC(=O)N1CC[C@@](N[*:1])(C(=O)[*:2])C1; PyrS2″ = (S)-3-amino-1-((pent-4-en-1-yloxy)carbonyl)pyrrolidine-3-carboxylic acid (stapling residue), C=CCCCOC(=O)N1CC[C@@](N[*:1])(C(=O)[*:2])C1; B5(16) = 2-amino-2-(pent-4-en-1-yl)hept-6-enoic acid = 2,2-bis(4-pentenyl)glycine (stitching residue), C=CCCCC(CCCC=C)(N[*:1])C(=O)[*:2]; B5(4) = 2,2-bis(4-pentenyl)glycine = 2-amino-2-(pent-4-en-1-yl)hept-6-enoic acid (stitching residue), C=CCCCC(CCCC=C)(N[*:1])C(=O)[*:2]; TfeGA = (S)-2-amino-3-((carboxymethyl)(2,2,2-trifluoroethyl)amino)propanoic acid, O=C([C@H](CN(CC(=O)[*:3])CC(F)(F)F)N[*:1])[*:2]; B5″ = 2,2-bis(4-pentenyl)glycine, stitching residue, C=CCCCC(CCCC=C)(N[*:1])C(=O)[*:2]; Phe(2-Cl) = N[C@@H](Cc1ccccc1Cl)C(=O)O; Bta = N[C@@H](Cc1csc2ccccc12)C(=O)O; αAllylPro = C=CC[C@@]1(C(=O)O)CCCN1; tBuAla = CC(C)(C)C[C@H](N)C(=O)O; 3Thi = N[C@@H](Cc1ccsc1)C(=O)O; Cha = N[C@@H](CC1CCCCC1)C(=O)O; S8 = C=CCCCCCC[C@](C)(N)C(=O)O; Alaol = C[C@@H](CO)N*
# T1: B-cat-Halo (beta-catenin HaloTag fusion expressed in HEK293 cells) (UniProt P35222 1-781)
# T1 sequence (looked up): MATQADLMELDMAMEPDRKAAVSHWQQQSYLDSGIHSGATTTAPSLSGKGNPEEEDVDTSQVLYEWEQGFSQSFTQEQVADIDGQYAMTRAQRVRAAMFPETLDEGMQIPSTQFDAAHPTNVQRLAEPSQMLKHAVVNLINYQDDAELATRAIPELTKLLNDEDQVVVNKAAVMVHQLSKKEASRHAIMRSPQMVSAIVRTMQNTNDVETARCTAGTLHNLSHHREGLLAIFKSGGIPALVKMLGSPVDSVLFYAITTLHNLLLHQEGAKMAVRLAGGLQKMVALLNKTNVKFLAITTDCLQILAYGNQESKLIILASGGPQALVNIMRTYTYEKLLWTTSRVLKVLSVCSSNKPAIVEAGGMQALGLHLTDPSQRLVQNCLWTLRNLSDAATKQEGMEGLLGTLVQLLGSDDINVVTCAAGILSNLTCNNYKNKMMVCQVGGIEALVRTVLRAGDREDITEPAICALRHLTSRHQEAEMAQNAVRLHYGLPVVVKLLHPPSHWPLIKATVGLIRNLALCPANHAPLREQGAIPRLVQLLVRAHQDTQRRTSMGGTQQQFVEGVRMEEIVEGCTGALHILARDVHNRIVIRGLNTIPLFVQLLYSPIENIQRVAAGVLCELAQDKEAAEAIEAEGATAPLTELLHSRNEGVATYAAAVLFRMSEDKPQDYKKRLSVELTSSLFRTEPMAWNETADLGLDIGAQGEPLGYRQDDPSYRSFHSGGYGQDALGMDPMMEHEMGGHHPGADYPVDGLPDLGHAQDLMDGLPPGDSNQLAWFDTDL
# T2: beta-catenin in DLD1 TCF/LEF luciferase reporter cells (Homo sapiens (Human), UniProt P35222 2-781)
# T2 sequence: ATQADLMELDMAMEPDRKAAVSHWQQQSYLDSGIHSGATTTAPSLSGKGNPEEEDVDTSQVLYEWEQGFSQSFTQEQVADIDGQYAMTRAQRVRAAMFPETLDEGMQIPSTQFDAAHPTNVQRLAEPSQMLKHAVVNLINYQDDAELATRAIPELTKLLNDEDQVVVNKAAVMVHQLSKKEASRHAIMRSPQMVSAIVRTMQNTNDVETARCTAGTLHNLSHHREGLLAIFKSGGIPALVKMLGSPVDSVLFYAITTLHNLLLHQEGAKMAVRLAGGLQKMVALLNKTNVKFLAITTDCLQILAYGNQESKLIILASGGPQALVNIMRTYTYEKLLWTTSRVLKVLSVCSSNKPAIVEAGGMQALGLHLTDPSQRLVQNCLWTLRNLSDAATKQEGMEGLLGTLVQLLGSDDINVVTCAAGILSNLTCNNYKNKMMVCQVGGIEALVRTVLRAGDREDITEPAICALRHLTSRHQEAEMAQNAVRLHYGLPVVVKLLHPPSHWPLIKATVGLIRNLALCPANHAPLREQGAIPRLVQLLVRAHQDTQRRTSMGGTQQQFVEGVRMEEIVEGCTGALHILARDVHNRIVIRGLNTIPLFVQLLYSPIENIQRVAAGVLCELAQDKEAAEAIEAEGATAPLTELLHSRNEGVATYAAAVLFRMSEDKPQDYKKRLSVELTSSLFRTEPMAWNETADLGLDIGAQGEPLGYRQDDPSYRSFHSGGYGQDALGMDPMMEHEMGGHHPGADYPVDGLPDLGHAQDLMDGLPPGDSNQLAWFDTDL
# T3: B-cat-Halo (beta-catenin HaloTag NanoBRET construct expressed in HEK293 cells) (Homo sapiens (Human), UniProt P35222 1-781)
# T3 sequence: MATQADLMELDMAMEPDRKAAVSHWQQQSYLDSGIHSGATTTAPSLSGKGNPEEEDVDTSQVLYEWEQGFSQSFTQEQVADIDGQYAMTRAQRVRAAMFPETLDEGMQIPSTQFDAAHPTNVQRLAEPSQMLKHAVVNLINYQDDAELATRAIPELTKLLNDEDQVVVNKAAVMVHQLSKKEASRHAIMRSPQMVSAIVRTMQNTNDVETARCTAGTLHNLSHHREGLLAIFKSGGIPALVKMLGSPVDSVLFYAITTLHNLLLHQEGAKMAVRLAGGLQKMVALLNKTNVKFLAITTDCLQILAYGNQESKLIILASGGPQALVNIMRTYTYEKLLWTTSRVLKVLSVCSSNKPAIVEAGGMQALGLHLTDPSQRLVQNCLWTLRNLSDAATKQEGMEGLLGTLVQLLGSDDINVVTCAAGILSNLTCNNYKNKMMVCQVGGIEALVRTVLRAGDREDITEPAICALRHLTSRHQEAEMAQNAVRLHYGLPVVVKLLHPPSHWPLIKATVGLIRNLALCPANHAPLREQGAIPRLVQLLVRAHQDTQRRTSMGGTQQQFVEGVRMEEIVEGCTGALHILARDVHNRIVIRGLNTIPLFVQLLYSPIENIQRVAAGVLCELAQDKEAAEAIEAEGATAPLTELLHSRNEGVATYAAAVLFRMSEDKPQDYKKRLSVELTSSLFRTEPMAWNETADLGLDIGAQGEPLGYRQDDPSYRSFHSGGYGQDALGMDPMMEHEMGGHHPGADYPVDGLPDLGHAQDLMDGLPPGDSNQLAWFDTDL
# T4: B-cat-Halo (NanoBRET construct expressed in HEK293 cells) (UniProt P35222 1-781, HaloTag NanoBRET 618 Ligand bound in the assay)
# T4 sequence (looked up): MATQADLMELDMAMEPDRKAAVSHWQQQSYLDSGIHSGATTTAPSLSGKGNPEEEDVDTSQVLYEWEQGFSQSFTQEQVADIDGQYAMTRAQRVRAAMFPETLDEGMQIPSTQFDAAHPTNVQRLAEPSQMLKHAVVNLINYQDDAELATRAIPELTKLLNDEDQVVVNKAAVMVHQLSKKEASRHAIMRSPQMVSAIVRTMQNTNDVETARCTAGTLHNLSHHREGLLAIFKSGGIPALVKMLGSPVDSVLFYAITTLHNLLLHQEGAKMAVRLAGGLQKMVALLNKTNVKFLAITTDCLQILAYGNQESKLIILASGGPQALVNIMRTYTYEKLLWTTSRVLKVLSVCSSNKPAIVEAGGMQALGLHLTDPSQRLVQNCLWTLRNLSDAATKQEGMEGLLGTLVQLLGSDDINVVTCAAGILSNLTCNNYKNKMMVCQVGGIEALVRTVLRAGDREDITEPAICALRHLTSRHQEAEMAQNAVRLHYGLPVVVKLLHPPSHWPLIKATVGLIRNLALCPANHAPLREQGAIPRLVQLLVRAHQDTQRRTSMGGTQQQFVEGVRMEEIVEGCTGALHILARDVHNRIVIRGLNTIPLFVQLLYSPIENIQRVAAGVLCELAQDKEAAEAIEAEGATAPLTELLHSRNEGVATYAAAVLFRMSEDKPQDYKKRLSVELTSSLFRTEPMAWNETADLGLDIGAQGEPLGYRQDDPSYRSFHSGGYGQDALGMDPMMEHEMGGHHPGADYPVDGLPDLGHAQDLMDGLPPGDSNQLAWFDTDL
# T5: beta-catenin (in DLD1 TCF/LEF luciferase reporter cells) (UniProt P35222 1-781)
# T5 sequence (looked up): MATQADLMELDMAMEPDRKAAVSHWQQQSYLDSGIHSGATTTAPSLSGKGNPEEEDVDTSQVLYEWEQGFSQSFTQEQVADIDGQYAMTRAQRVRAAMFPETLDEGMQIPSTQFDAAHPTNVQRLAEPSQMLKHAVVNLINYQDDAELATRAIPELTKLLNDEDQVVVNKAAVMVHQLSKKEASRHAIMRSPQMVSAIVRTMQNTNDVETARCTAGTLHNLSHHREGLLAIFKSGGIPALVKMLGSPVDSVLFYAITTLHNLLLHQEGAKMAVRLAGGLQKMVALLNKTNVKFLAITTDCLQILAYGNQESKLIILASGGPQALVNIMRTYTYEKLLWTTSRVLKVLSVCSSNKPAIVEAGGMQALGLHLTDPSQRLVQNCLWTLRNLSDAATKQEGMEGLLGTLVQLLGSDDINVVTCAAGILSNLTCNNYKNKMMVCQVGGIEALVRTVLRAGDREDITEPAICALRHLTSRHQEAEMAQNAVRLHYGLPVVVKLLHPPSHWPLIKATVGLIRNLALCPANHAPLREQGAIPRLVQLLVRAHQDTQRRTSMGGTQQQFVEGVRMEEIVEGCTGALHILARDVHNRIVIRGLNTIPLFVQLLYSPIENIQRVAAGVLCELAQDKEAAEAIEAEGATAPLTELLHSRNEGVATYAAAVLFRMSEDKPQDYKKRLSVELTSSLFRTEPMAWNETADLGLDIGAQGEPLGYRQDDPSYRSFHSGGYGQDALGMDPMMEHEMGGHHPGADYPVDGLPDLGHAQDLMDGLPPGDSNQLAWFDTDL
# Tests used:
# Assay in all cases: cell-based or functional assay
# [1] = target: T1, B-cat-Halo (beta-catenin HaloTag fusion …)
# [2] = target: T2, beta-catenin in DLD1 TCF/LEF luciferase …
# [3] = target: T3, B-cat-Halo (beta-catenin HaloTag …)
# [4] = target: T4, B-cat-Halo (NanoBRET construct …)
# [5] = target: T5, beta-catenin (in DLD1 TCF/LEF …)
binder,measurement,setting,value
"Ac-[αAllylPro]D[Cha][B5(16)]DEAAFN[S8]F[Bta]Q-NH2 (staple 1-4, 4-11; also: later-eluting staple isomer composition) [I-620]",NanoBRET Abs IC50,[1],12 µM
"Ac-[αAllylPro]D[tBuAla][B5(4)]DDAAFT[PyrS2″][Phe(2-Cl)][Bta]-Alaol (staple 1-4, 4-11; also: C-terminal Alao1 group, meaning not given here) [I-1246]",DLD1 4% Abs IC50,[2],16.2 µM
same,NanoBRET Abs IC50,[3],24.3 µM
"Ac-[αAllylPro]D[tBuAla][B5″]D[TfeGA]AAFN[PyrS2(3)][3Thi][Bta]Q-NH2 (staple 1-4, 4-11) [I-762]",NanoBRET Abs IC50,[4],14 µM
same,DLD1 4% Abs IC50,[5],7.9 µM
